Measured values published in patent US6093692A, “Method and compositions for lipidization of hydrophilic molecules” (The University of Southern California, priority 1997, dated 2000).

Legend:
[1] = tested on: C3H 10T1/2 cells; test: Plating efficiency; format: cell-based
Method: The plating efficiency (PE) of the cells was also studied in conjunction with each of the transformation assays. To determine the PE of the cells in the different treatment groups, cells (200 cells/dish) were seeded into three 60-mm petri dishes per experiment group and treated in the identical manner as the transformation assay cells. The cells in these assays were terminated at 10 days, fixed with 100% methanol, and stained with giemsa; the colonies of 50 cells or more visible under a microscope were then counted. The plating efficiency is defined as the (number of colonies/number of cells seeded)×100%.

[2] = set-up: species or system CF-1 mice; conditions: mouse, in vivo, iv, 3 mg/kg
Method: Female CF-1 mice, […], weighing 20-25 g each, with free access to food and water prior to the experiments, were used for the animal experiments. ^125 I-BBI (3 mg/kg), as native-BBI or as BBIssPal or BBIssOleic conjugate, was administered to the animals via the tail vein. At 0.5, 3, and 24 hr post-injection, 3 animals from each experiment group were sacrificed and their blood (200 μl), the kidneys, the lungs, and the liver were removed, rinsed in ice-cold PBS, and assayed for accumulated radioactivity. The weights of the organs were recorded and used to adjust the concentration of the conjugates in the organs.

[3] = tested on: C3H 10T1/2(clone 8) cells; test: In vitro transformation assay (MCA-induced); format: cell-based
Method: Transformation assays were carried out using C3H 10T1/2(clone 8) cells according to the published recommendations [Reznikoff, C. A., et al., Cancer. Res., 33:3239-3249 (1973); Reznikoff, C. A., et al., Cancer. Res., 33:3231-3238 (1973)]. Stock cultures of mycoplasma-free cells were maintained by passing 50,000 cells per 75 cm^2 flask every seven days. Using this schedule, the cells were always passed approximately 2 days before reaching confluence. The stock culture was grown in Eagle's basal medium supplemented with 10% FBS, penicillin (100 units), and streptomycin (100 μg) and used for the transformation assays at passages of 9 to 14. The cells were passed by treating the stock cells with trypsin (0.1%) in PBS for 5 min and quenching the trypsin with 5 ml of the medium. This procedure was adapted to minimize spontaneous transformation in the stock cultures and maximize the plating efficiency in the petri dishes. The FBS stock used in the cultures was pre-screened to ensure that the serum was able to support the expression and the growth of the transformed cells.
For the transformation assays, C3H 10T1/2 cells (1000/dish) were seeded into 60 mm petri dishes and allowed to grow in a humidified 5% CO2 atmosphere in Eagle's basal medium, supplemented with 10% FBS, penicillin (100 units), and streptomycin (100 μg), for 24 hr. Subsequently, the cells were initiated by treatment with 25 μl of the 3-methylcholanthrene (MCA) in acetone stock solution ([…]) to a final concentration of 1 μg/ml of MCA (5 μg/5 ml). The cells were allowed to grow in the presence of the carcinogen or solvent for 24 hr, and the medium in each dish was then replaced with fresh medium containing no carcinogen or solvent. The medium in the dishes was replaced twice per week for the first two weeks of the assay, and thereafter once a week for the remainder four weeks of the assay. In the experiments designed to determine the transformation inhibitory activity of the conjugates, the cells were maintained in the medium containing the conjugates (1 μg/ml) for the first three weeks of the assay; thereafter, the cells were maintained in medium containing no added conjugates.
Six weeks after the carcinogen treatment, the cells were inspected under a microscope for adherence to the culture dishes and were washed with PBS and then fixed in 100% methanol. The fixed monolayers were then stained with Giemsa stain. Twenty dishes per group were treated in each experiment. In addition to the test groups, all the transformation assays contained at least three other groups: negative control (not treated with carcinogen or solvent), acetone control (treated with 25 μl of acetone), and positive control [treated with MCA (1 μg/ml) in 25 μl of acetone]. The transformed foci (>3 mm in diameter) in the plates were studied under a microscope and classified according to published guidelines as types I, II, or III [Landolph, J. R., Transfomatin assay of established cell lines: Mechanism and Application (ed. Kakunaga, T., and Yamasaki, H.) IARC Scientific Publications, Lyon, France pp. 185-201 (1985)]. Briefly, type III foci were dense, multilayered, basophilic, areas of cell growth which stained to a deep blue color with Giemsa and had rough crisscrossed edges. Type II foci were also dense, multilayered, areas of cell growth, but were stained to a purple color with Giemsa and had smoother, more defined edges compared to Type III foci. Type I foci were not scored in the assay.
BBI, either as the free protein or in conjugated form to palmitic or oleic acid, was added to the cultures at 1.0 μg/ml for the first three weeks of the transformation assay period starting immediately after the MCA treatment. MCA-treated cells were exposed to 3-methylcholanthrene, dissolved in 25 μl of acetone, at a concentration of 1 μg/ml for 24 hr. Acetone-treated cells were exposed to 25 μl of acetone for 24 hr only. […]

[4] = MCA 1 μg/ml 24 hr, conjugates 1.0 μg/ml first three weeks, scored at six weeks

B1: BBIssPal: the palmityl disulfide conjugate of BBI (conjugate, UniProt P01055 40-110, looked up)
Bowman-Birk type proteinase …: DDESSKPCCDQCACTKSNPPQCRCSDMRLNSCHSACKSCICALSYPAQCFCVDITDFCYEPCKPSEDDKEN
modifications: palmityl disulfide; 125I
notes: the palmityl disulfide conjugate of BBI
For B1, the “Plating Efficiency” value [1] was 23 ± 3.0%, the “Blood levels and removal from circulation” value [2] was “accumulated in the blood at a relatively high level” and the “Kidney accumulation” value [2] was “BBIssPal was not”. For the same molecule, the “Kidney clearance, fold lower than native-BBI” value [2] was “about 4 fold”, the “Liver accumulation, fold higher than BBI” value [2] was “approximately 5 fold” and the “Lung accumulation/levels, fold higher than BBI” value [2] was “approximately 2 fold”. The “Retention in the liver” value [2] was “remained high in the liver even at 24 hr post-injection”, the “Retention of anti-transformation activity of BBI” value ([3]; 1.0 μg/ml) was “retained the original biological activity of BBI” and the “Transformed foci” value ([3]; MCA 1 μg/ml 24 hr, conjugates 1.0 μg/ml first three weeks) was “one type II focus out of the 20 dishes”. For the same molecule, the “Fraction of dishes containing transformed foci” value [3, 4] was 0.05 and the “No. of dishes with transformed foci/No. of dishes” value [3, 4] was 1/20.
